In PMC12595022:

Target: 14-3-3γ (UniProt P61981)
Assay: co-immunoprecipitation, Western blot
Conditions: reference: full-length wild-type MDMX; sites S367

binding against the reference: lost
Substance: MDMX (from UniProt O15151) MDMX-S367A
